Test results: article PMC11378909, “Thr^4 phosphorylation on RNA Pol II occurs at early transcription regulating 3′-end processing” (Science Advances, 2024)
Like-named read-outs stand apart in the source and are kept apart here. Values belong to the molecule of their own block, whether it stands above or below them. Where no end group is shown, it is not given here.

Experiments:
[1] = molecular target: FITC-labeled pSer2 CTD peptide (16-mer, single phosphorylation at Ser2); test: fluorescence polarisation; CID protein titrated into 10 nM FITC-peptide; 50 mM Tris (pH 8.0), 300 mM NaCl, 10 mM BME; room temperature; triplicate; total binding model
[2] = molecular target: FITC-labeled pThr4 CTD peptide (16-mer, single phosphorylation at Thr4); test: as above
[3] = system: pThr^4 (6D7) antibody; test: Dot blot of pThr^4 CTD peptide after kinase treatment; type: biochemical; conditions: pThr^4 CTD peptide (18-mer), 10 μg or 5 μg, kinase-treated vs no-kinase control (fig. S1C)
From the text: Another reported Thr^4 antibody masking effect in vitro is observed when Ser^2, two residues upstream of pThr^4, is phosphorylated (pSer^2Pro^3pThr^4Ser^5). Despite the in vitro blocking effect, this potential impediment posed to pThr^4 identification is less concerning under physiological conditions as pSer^2/pThr^4 double phosphorylation is rather rare in cells ([19]). Subsequent biochemical and cellular experiments have shown that, although Ser^2 and Thr^4 phosphorylations occur around the same time during transcription cycle, they tend to occur on different heptads because kinases avoid placing a phosphate on the neighboring Ser^2 when Thr^4 is phosphorylated and vice versa ([19]). […]
Another phosphorylation mark co-occurring with Thr^4 on the same heptad is Tyr1 (accounts for ~5% of doubly phosphorylated heptads) ([19]). […] To corroborate this, we evaluated the possibility that Tyr1 phosphorylation affects pThr^4 detection by treating pThr^4-containing CTD peptide with the Tyr1 kinase, c-Abl (fig. S1B). […]
Serial dilutions of pThr^4 CTD peptide or Dyrk1a/Abl1 kinase-treated pThr^4 CTD peptide were spotted on an activated nitrocellulose membrane. […] The membrane was washed three times and visualized on a LI-COR Odyssey CLx image reader. […]

[4] = molecular target: FITC-labeled pSer2 CTD peptide (16-mer, single phosphorylation at Ser2); test: fluorescence anisotropy (FA); conditions: read at the highest protein concentration, 100 µM, read off a plot
[5] = molecular target: FITC-labeled pThr4 CTD peptide (16-mer, single phosphorylation at Thr4); test: fluorescence anisotropy (FA); conditions: read at the highest protein concentration, 100 µM, read off a plot
[6] = molecular target: FITC-labeled pSer2 CTD peptide (16-mer, single phosphorylation at Ser2); test: fluorescence polarisation; CID protein titrated into 10 nM FITC-peptide; 50 mM Tris (pH 8.0), 300 mM NaCl, 10 mM BME; room temperature; triplicate; total binding model; remark: listed apart in the source
[7] = molecular target: FITC-labeled pThr4 CTD peptide (16-mer, single phosphorylation at Thr4); test: as above; remark: listed apart in the source
[8] = molecular target: T1, RNA Pol II CTD peptide CTD peptide (Homo sapiens, UniProt P24928, not fully specified (residue 2); also: pSer2 (heptad position 2, which repeat(s) not given here)); test: fluorescence anisotropy
T1 chain: YSPTSPSYSPTSPS

[9] = molecular target: T2, RNA Pol II CTD peptide CTD peptide (Homo sapiens, UniProt P24928, not fully specified (residue 4); also: pThr4 (heptad position 4, which repeat(s) not given here)); test: fluorescence anisotropy
T2 chain: YSPTSPSYSPTSPS

[10] = system: pSer^2 Pol II in HEK293 nuclear extract; test: Western blot, pSer^2 recognition in HEK293 nuclear extract treated with phosphatase; type: biochemical, human; conditions: HEK293 nuclear extract treated with Ssu72, antibody 3E10; vs untreated and inactive Ssu72 mutant
[11] = system: RNA Pol II CTD; conditions: cited from earlier work
From the text: The reported enrichment of pThr^4pSer^5 double phosphorylation in cells raised concerns for Thr^4 phosphorylation detection as the masking effect by adjacent phosphorylation may block pThr^4 recognition leading to false-negative results ([19]). To address this issue, we explored the possibility of eliminating the masking effect on pThr^4 antibody recognition by selectively removing the interfering phosphate groups on Ser^5 of the CTD. Our prior biochemical and structural analyses have established phosphatase Ssu72 as a highly specific phosphatase for Ser^5 of the CTD, distinguishing Ser^5 from ...

- Kd [1]: 8.7 µM
- Kd [2]: 6.6 µM
Molecule: RPRD2-CID (residues 19 to 149) (from UniProt Q5VT52 19-149) (domain or fragment)

Molecule: c-Abl: Tyr1 kinase
- effect of kinase treatment on pThr^4 antibody detection [3]: does not affect pThr^4 antibody recognition

- response ([4]; pSer2 CTD peptide, parent: est. 170): 17 mP
- response ([5]; pThr4 CTD peptide, parent: est. 77): 15 mP
Molecule: SCAF4-CID (residues 1 to 139) (from UniProt O95104) R112A

- response ([4]; pSer2 CTD peptide, parent: est. 110): 17 mP
- response ([5]; pThr4 CTD peptide, parent: est. 87): 25 mP
Molecule: RPRD1A-CID (residues 2 to 133) (from UniProt Q96P16) R106A

- response ([4]; pSer2 CTD peptide, parent: est. 180): 16 mP
- response ([5]; pThr4 CTD peptide, parent: est. 120): 16 mP
Molecule: RPRD2-CID (residues 19 to 149) (from UniProt Q5VT52) R122A

- response ([4]; FITC-labeled pSer2 CTD peptide, parent: est. 170): 8 mP
- response ([5]; FITC-labeled pThr4 CTD peptide, parent: est. 150): 8 mP
Molecule: RPRD1B-CID (residues 2 to 133) (from UniProt Q9NQG5) R106A

- Kd [6]: 13.8 µM
- Kd [7]: 12.3 µM
B1: RPRD1A-CID (residues 2 to 133) (domain or fragment)
chain: SAFSEAALEKKLSELSNSQQSVQTLSLWLIHHRKHSRPIVTVWERELRKAKPNRKLTFLYLANDVIQNSKRKGPEFTKDFAPVIVEAFKHVSSETDESCKKHLGRVLSIWEERSVYENDVLEQLKQALYGDK

- Kd [6]: 22.8 µM
- Kd [7]: 5.3 µM
B2: RPRD1B-CID (residues 2 to 133) (domain or fragment)
chain: SSFSESALEKKLSELSNSQQSVQTLSLWLIHHRKHAGPIVSVWHRELRKAKSNRKLTFLYLANDVIQNSKRKGPEFTREFESVLVDAFSHVAREADEGCKKPLERLLNIWQERSVYGGEFIQQLKLSMEDSK

- Kd [8]: 10.7 µM
- Kd [9]: 3.9 µM
B3: CHERP CID (protein)
chain: LLEETQLDMNEFDNLLQPIIDTCTKDAISAGKNWMFSNAKSPPHCELMAGHLRNRITADGAHFELRLHLIYLINDVLHHCQRKQARELLAALQKVVVPIYCTSFLAVEEDKQQKIARLLQLWEKNGYFDDSIIQQLQSPALGLGQYQ

- Kd [6]: 6.7 µM
- Kd [7]: 8.1 µM
B4: SCAF4-CID (residues 1 to 139) (domain or fragment)
chain: MDAVNAFNQELFSLMDMKPPISRAKMILITKAAIKAIKLYKHVVQIVEKFIKKCKPEYKVPGLYVIDSIVRQSRHQFGTDKDVFGPRFSKNITATFQYLYLCPSEDKSKIVRVLNLWQKNGVFKIEIIQPLLDMAAGTS

B5: Ssu72: phosphatase highly specific for Ser^5 of the CTD (protein)
chain: MTDPSKLAVAVVCSSNMNRSMEAHNFLAKKGFNVRSYGTGERVKLPGMAFDKPNVYEFGTKYEDIYRDLESKDKEFYTQNGLLHMLDRNRRIKKCPERFQDTKEQFDIIVTVEERVYDLVVMHMESMESVDNRPVHVLNVDVVDNAEDALMGAFVITDMINMMAKSTDLDNDIDELIQEFEERRKRVILHSVLFY
modifications: left off: 6xHis, end not stated, state not stated | SUMO, end not stated, state not stated
- pSer^2 signal recognition [10]: no significant difference
- effect on Ser^5 phosphorylation on the CTD ([11]; MS and biochemical assays): effectively eradicating Ser^5 phosphorylation
- effect on levels of pSer^2 or pThr^4 ([11]; MS and biochemical assays): no effect
- activity against pSer^7 relative to pSer^5 [11]: about three magnitudes lower
